Measured values taken from patent publication US6897054.

Molecular target: huCdc7 fused to DNA-binding domain of Gal4 (human)
Assay: yeast two-hybrid assay, lacZ activity

Substance: H37 deletion derivative ΔP2 fused to Gal4 activation domain (from UniProt Q9UBU7 1-431)
- interaction relative to the full-length clone: 10%
